Measurements published in publication PMC8034618.

Test system: LARP1 C-terminal fragment (extended DM15) WT (Homo sapiens)
Assay: EMSA
Conditions: m7Gppp cap; EMSA: 20 mM Tris-HCl pH 8, 150 mM NaCl, 10% glycerol, 1 mM DTT, 0.5 ug tRNA, 1 ug BSA in 10 ul; on ice 30 min; 7-8% native 0.5x TBE gel at 4 C; RNA <=200 pM

## m7G-RPS6-UTR (capped RPS6 20-mer)
  Kd: 153 nM
